± gives the uncertainty stated by the source.
Assay: protein stability index of a GFP-peptide fusion (yeast GPS) (PSI 1-4); higher = more stable; sorted into four equal gates, so the index is relative within each strain
Summary of the method: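 The protein stability index of a peptide was calculated by multiplying its read frequency in each gate by that gate's number and adding the products. The peptides were tiled 17-residue stretches of yeast proteins, fused downstream of GFP on a Cherry-expressing plasmid and carried in yeast as a pooled library. Mid-log cultures in leucine-free medium were sorted into four equal gates by GFP/Cherry ratio, and each gate's plasmids were PCR-amplified and Illumina-sequenced.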

Which protein stability index (doa10∆) does the source give for RVRTDDSVLLNRGNKKR [YML031W/NDC1] here?
Its protein stability index is 3.29 ± 0.13.

And the protein stability index (pdr5∆)?
The protein stability index was 3.4 ± 0.16.

What about the protein stability index (san1∆) of the same sequence?
Its protein stability index is 3.08 ± 0.058.

What about the protein stability index (ubr1∆) of the same sequence?
The protein stability index was 3.3 ± 0.097.

For TPSDLSESGSKLNVDQF [POP1], which protein stability index (doa10∆) is on record?
Its protein stability index is 3.46 ± 0.098.

And the protein stability index (pdr5∆)?
Its protein stability index is 3.4 ± 0.094.

And the protein stability index (san1∆)?
Its protein stability index is 3.19 ± 0.072.

And the protein stability index (ubr1∆)?
Its protein stability index is 3.21 ± 0.1.

Which results are given for YYNEISRDLDISSSTQC [POP6]?
protein stability index (doa10∆): 1.95 ± 0.091; protein stability index (pdr5∆): 2.56 ± 0.073; protein stability index (san1∆): 2.25 ± 0.093; protein stability index (ubr1∆): 2.3 ± 0.043

What does the source list for GSNVLKSGKTIVITSIT [RRP43]?
protein stability index (doa10∆): 1.72 ± 0.063; protein stability index (pdr5∆): 2.57 ± 0.061; protein stability index (san1∆): 2.41 ± 0.067; protein stability index (ubr1∆): 2.33 ± 0.066

Which protein stability index (doa10∆) does the source give for APGASVPATAAPGTEAG [SWI1] here?
The protein stability index was 2.99 ± 0.094.

And the protein stability index (pdr5∆)?
The protein stability index was 3.05 ± 0.075.

And the protein stability index (san1∆)?
Its protein stability index is 2.92 ± 0.079.

And the protein stability index (ubr1∆)?
Its protein stability index is 3.18 ± 0.07.

For SKIIVFPRNGKAPEAEQ [RPL13A], which protein stability index (doa10∆) is on record?
Its protein stability index is 3.19 ± 0.12.

What about the protein stability index (pdr5∆) of the same sequence?
The protein stability index was 3.09 ± 0.12.

And the protein stability index (san1∆)?
Its protein stability index is 3.06 ± 0.062.

And the protein stability index (ubr1∆)?
The protein stability index was 2.98 ± 0.15.

For GKQIKSTIYNWGDNKLA [YML103C/NUP188], which protein stability index (doa10∆) is on record?
The protein stability index was 2.71 ± 0.17.

What about the protein stability index (pdr5∆) of the same sequence?
Its protein stability index is 3.18 ± 0.15.

And the protein stability index (san1∆)?
Its protein stability index is 2.82 ± 0.11.

What about the protein stability index (ubr1∆) of the same sequence?
The protein stability index was 2.87 ± 0.1.

Which protein stability index (doa10∆) does the source give for GQKNEVRILRLITTNSV [SNF2] here?
Its protein stability index is 2.21 ± 0.052.

What about the protein stability index (pdr5∆) of the same sequence?
Its protein stability index is 1.95 ± 0.052.

And the protein stability index (san1∆)?
The protein stability index was 2.14 ± 0.058.

What about the protein stability index (ubr1∆) of the same sequence?
Its protein stability index is 2.08 ± 0.049.

With ESVPTPANAEPQAVTIT [ITC1] as the sequence, how does the protein stability index (doa10∆) read?
The protein stability index was 2.88 ± 0.084.

What about the protein stability index (pdr5∆) of the same sequence?
The protein stability index was 2.92 ± 0.075.

What about the protein stability index (san1∆) of the same sequence?
The protein stability index was 2.62 ± 0.063.

What about the protein stability index (ubr1∆) of the same sequence?
Its protein stability index is 3.18 ± 0.16.

With HFELGGEKKQKGQALQF [RPL42A] as the sequence, how does the protein stability index (doa10∆) read?
The protein stability index was 2.72 ± 0.17.

And the protein stability index (pdr5∆)?
Its protein stability index is 2.88 ± 0.1.

And the protein stability index (san1∆)?
Its protein stability index is 2.46 ± 0.094.

And the protein stability index (ubr1∆)?
Its protein stability index is 2.76 ± 0.13.

Which protein stability index (doa10∆) does the source give for YSPIEKESPWKILMYQY [RRP6] here?
The protein stability index was 1.75 ± 0.063.

What about the protein stability index (pdr5∆) of the same sequence?
The protein stability index was 1.89 ± 0.062.

What about the protein stability index (san1∆) of the same sequence?
The protein stability index was 1.35 ± 0.11.

What about the protein stability index (ubr1∆) of the same sequence?
Its protein stability index is 1.44 ± 0.054.

What does the source list for VEKRIGKIVSQRGKWNL [RGR1]?
protein stability index (doa10∆): 2.88 ± 0.065; protein stability index (pdr5∆): 2.96 ± 0.049; protein stability index (san1∆): 3.16 ± 0.06; protein stability index (ubr1∆): 2.71 ± 0.036

With TSQKMKKMVYVLDSMTK [SRP54] as the sequence, how does the protein stability index (doa10∆) read?
Its protein stability index is 2.79 ± 0.11.

And the protein stability index (pdr5∆)?
Its protein stability index is 3.12 ± 0.11.

And the protein stability index (san1∆)?
Its protein stability index is 3.13 ± 0.21.

And the protein stability index (ubr1∆)?
Its protein stability index is 2.96 ± 0.078.

What does the source list for PLVGKPKTELTKGDSTP [YAR002W/NUP60]?
protein stability index (doa10∆): 2.59 ± 0.061; protein stability index (pdr5∆): 2.9 ± 0.058; protein stability index (san1∆): 2.46 ± 0.086; protein stability index (ubr1∆): 2.83 ± 0.11

For GLIVNPVKVSGTIKKIE [POP5], which protein stability index (doa10∆) is on record?
Its protein stability index is 2.41 ± 0.16.

What about the protein stability index (pdr5∆) of the same sequence?
Its protein stability index is 2.97 ± 0.19.

And the protein stability index (san1∆)?
The protein stability index was 2.95 ± 0.12.

What about the protein stability index (ubr1∆) of the same sequence?
The protein stability index was 2.26 ± 0.15.

Which protein stability index (doa10∆) does the source give for LPFMQNAGPNSNIPNLL [YDL088C/ASM4] here?
Its protein stability index is 2.46 ± 0.037.

And the protein stability index (pdr5∆)?
Its protein stability index is 2.18 ± 0.04.

What about the protein stability index (san1∆) of the same sequence?
The protein stability index was 2.58 ± 0.039.

What about the protein stability index (ubr1∆) of the same sequence?
The protein stability index was 2.52 ± 0.029.

For EIYRISFQLSKIRRAAR [RPS9A], which protein stability index (doa10∆) is on record?
Its protein stability index is 1.95 ± 0.043.

What about the protein stability index (pdr5∆) of the same sequence?
The protein stability index was 2.15 ± 0.062.

And the protein stability index (san1∆)?
The protein stability index was 2.3 ± 0.048.

What about the protein stability index (ubr1∆) of the same sequence?
Its protein stability index is 2.29 ± 0.046.

With PSTNAQNVNVPSAFNFT [YOR098C/NUP1] as the sequence, how does the protein stability index (doa10∆) read?
Its protein stability index is 2.6 ± 0.046.

What about the protein stability index (pdr5∆) of the same sequence?
The protein stability index was 2.73 ± 0.054.

And the protein stability index (san1∆)?
The protein stability index was 2.67 ± 0.041.

What about the protein stability index (ubr1∆) of the same sequence?
Its protein stability index is 2.75 ± 0.045.

For SMTATADVLAMAKVEVN [RIP1], which protein stability index (doa10∆) is on record?
The protein stability index was 1.99 ± 0.12.

And the protein stability index (pdr5∆)?
Its protein stability index is 2.4 ± 0.11.

What about the protein stability index (san1∆) of the same sequence?
The protein stability index was 2.43 ± 0.15.

What about the protein stability index (ubr1∆) of the same sequence?
The protein stability index was 2 ± 0.074.

Which protein stability index (pdr5∆) does the source give for INQKALRKIQALRDVKN [GAL11] here?
Its protein stability index is 1.26 ± 0.25.

Which results are given for KRLIAHDWLNALDGDLI [YCG1]?
protein stability index (doa10∆): 2.18 ± 0.17; protein stability index (pdr5∆): 2.9 ± 0.16; protein stability index (san1∆): 2.6 ± 0.17; protein stability index (ubr1∆): 3.23 ± 0.081

What does the source list for KIQVVDRHIGCVYSGLI [PRE10]?
protein stability index (doa10∆): 1.28 ± 0.12; protein stability index (pdr5∆): 1.7 ± 0.29; protein stability index (ubr1∆): 1.36 ± 0.14

For NNSGNDNNNTTNNDSNN [MED2], which protein stability index (doa10∆) is on record?
The protein stability index was 3.13 ± 0.035.

And the protein stability index (pdr5∆)?
Its protein stability index is 3.27 ± 0.033.

What about the protein stability index (san1∆) of the same sequence?
The protein stability index was 3.133 ± 0.023.

What about the protein stability index (ubr1∆) of the same sequence?
Its protein stability index is 3.092 ± 0.03.

What does the source list for ENAYKSENAPSASSKEF [YAR002W/NUP60]?
protein stability index (doa10∆): 2.18 ± 0.066; protein stability index (pdr5∆): 1.86 ± 0.062; protein stability index (san1∆): 2.15 ± 0.078; protein stability index (ubr1∆): 2.15 ± 0.074

Which protein stability index (doa10∆) does the source give for EPPGSNTSFSFTKPPAN [YOR098C/NUP1] here?
The protein stability index was 3.12 ± 0.07.

What about the protein stability index (pdr5∆) of the same sequence?
The protein stability index was 3.21 ± 0.057.

And the protein stability index (san1∆)?
The protein stability index was 3 ± 0.039.

And the protein stability index (ubr1∆)?
Its protein stability index is 2.96 ± 0.053.

What does the source list for IPLDNYDDFIYLSDLKQ [PCI8]?
protein stability index (doa10∆): 2.11 ± 0.12; protein stability index (pdr5∆): 2.04 ± 0.14; protein stability index (san1∆): 1.77 ± 0.25; protein stability index (ubr1∆): 2.62 ± 0.12
